Assay in all cases: ELISA; 200 ng gp120 coated on Maxisorb 96-well plates in PBS overnight at 4°C; blocked with PBS 5% dry milk; 25–50 µl antibody supernatant 1 h at RT; HRP goat anti-human IgG (H+L); TMB, OD450; absorbance normalised by the expression titer
Holding throughout (details): one partner purified
Background: ELISA stands for enzyme-linked immunosorbent assay.

The target of assay [1] is T1, HIV-1 YU2 gp120 monomeric protein (HIV-1 clade B, primary isolate YU2, UniProt P35961).
T1 construct: gp120 envelope glycoprotein (the gp120 product of Env gp160) of HIV-1 primary isolate YU2, full-length gp120, monomeric

For assay [2], the target named is T2, HIV-1 CAAN gp120 monomeric protein (HIV-1 subtype B, isolate CAAN …, UniProt Q5G5U4, strain).
T2 construct: gp120 envelope glycoprotein (the gp120 product of Env gp160) of HIV-1 primary isolate CAAN, full-length gp120, monomeric

Assay [3] has as its target T3, HIV-1 BaL gp120 monomeric protein (HIV-1 subtype B, isolate BaL (clone not …, UniProt Q2MKA8, strain)).
T3 construct: gp120 envelope glycoprotein (the gp120 product of Env gp160) of HIV-1 primary isolate BaL, full-length gp120, monomeric

B1: PGT128 (wild-type IgG, PGT128 heavy chain with PGT128 light chain) (antibody, V domains shown)
VH: QPQLQESGPTLVEASETLSLTCAVSGDSTAACNSFWGWVRQPPGKGLEWVGSLSHCASYWNRGWTYHNPSLKSRLTLALDTPKNLVFLKLNSVTAADTATYYCARFGGEVLRYTDWPKPAWVDLWGRGTLVTVSS
VL: QSALTQPPSASGSPGQSITISCTGTSNNFVSWYQQHAGKAPKLVIYDVNKRPSGVPDRFSGSKSGNTASLTVSGLQTDDEAVYYCGSLVGNWDVIFGGGTKLTVL
notes: PGT128 heavy chain; PGT128 light chain; also called PGT128-H/PGT128-L; source: HEK 293T cells (methods; the results say 293F), transient transfection in 96-well microplates, supernatant used directly
As to B1, the binding result in assay [1] and in assay [2] was “binds” in each case.

B2: PGT121 (wild-type IgG, PGT121 heavy chain with PGT121 light chain) (antibody, V domains shown)
VH: QMQLQESGPGLVKPSETLSLTCSVSGASISDSYWSWIRRSPGKGLEWIGYVHKSGDTNYSPSLKSRVNLSLDTSKNQVSLSLVAATAADSGKYYCARTLHGRRIYGIVAFNEWFTYFYMDVWGNGTQVTVSS
VL: DISVAPGETARISCGEKSLGSRAVQWYQHRAGQAPSLIIYNNQDRPSGIPERFSGSPDSPFGTTATLTITSVEAGDEADYYCHIWDSRVPTKWVFGGGTTLTVL
notes: PGT121 heavy chain; PGT121 light chain; also called PGT121-H/PGT121-L; source: HEK 293T cells (methods; the results say 293F), transient transfection in 96-well microplates, supernatant used directly
In the case of B2, the binding result in assay [2] and in assay [3] was “binds” each time.

For the origin of these results see paper PMC3576407, “N332-Directed Broadly Neutralizing Antibodies Use Diverse Modes of HIV-1 Recognition: Inferences from Heavy-Light Chain Complementation of Function” (PLoS ONE, 2013).
